Data on 35 molecules can be found in patent US7205275 (dated 2007).

This assay deals with T1, human Ang-2 (human, UniProt O15123).
T1 chain: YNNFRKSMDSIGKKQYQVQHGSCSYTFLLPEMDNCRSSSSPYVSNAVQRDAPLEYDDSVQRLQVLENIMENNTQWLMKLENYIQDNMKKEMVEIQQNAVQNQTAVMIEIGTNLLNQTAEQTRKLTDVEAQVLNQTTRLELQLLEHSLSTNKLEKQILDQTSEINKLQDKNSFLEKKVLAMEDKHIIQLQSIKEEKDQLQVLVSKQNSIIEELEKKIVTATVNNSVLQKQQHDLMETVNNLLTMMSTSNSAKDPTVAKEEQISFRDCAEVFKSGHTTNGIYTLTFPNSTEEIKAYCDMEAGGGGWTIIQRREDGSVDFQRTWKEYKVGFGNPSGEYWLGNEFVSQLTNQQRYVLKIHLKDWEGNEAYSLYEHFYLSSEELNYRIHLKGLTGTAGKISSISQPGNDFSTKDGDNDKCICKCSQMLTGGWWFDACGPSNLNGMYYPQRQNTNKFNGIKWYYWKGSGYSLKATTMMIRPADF
Briefly: competition ELISA vs Tie-2. For orientation: ELISA stands for enzyme-linked immunosorbent assay.

Primed or numbered codes have the meaning given here. Where no end group is shown, it is not given here. [ ]: non-standard residue; d: D form. Fc(4) = non-antigen-binding fragment of an antibody (from proteolytic digestion of a whole antibody); Fc = immunoglobulin Fc domain fused to the peptide (peptibody); Fc(7) = Fc domain, peptide fused N- or C-terminal to it Bounds are passed on as bounds.

In general, IC50 refers to the concentration needed to halve the response being measured. High values mean weaker potency in that assay, low ones greater potency in that assay. As to M[Fc]GGGGGAQPMNQVECDWDPWTCEHMPRSLE (not fully specified; cysteine pairing not given here) [Con4-33 (C)], the 50% inhibitory concentration (IC50) turned out to be 0.52 nM.

M[Fc(4)]GGGGGAQGHSQEECGWDPWTCEHMGTSLE (not fully specified; cysteine pairing not given here) [Con4-48 (C)] showed an IC50 of 0.26 nM.

In turn, M[Fc(4)]GGGGGAQSTIGDMCEWDPWTCAHMQVDLE (not fully specified; cysteine pairing not given here) [Con4-8 (C)] yielded an IC50 of 1.2 nM.

M[Fc(7)]GGGGGAQRTTQEKCEWDPWTCEHMESQLE (not fully specified (bridges); cysteine pairing not given here) [Con4-29 (C)] yielded an IC50 of 0.41 nM.

As to M[Fc(4)]GGGGGAQWPQTEGCQWDPWTCRLLHGWLE (not fully specified; cysteine pairing not given here) [Con4-6 (C)], the IC50 was above 1000 nM.

With M[Fc(4)]GGGGGAQGTSPSFCQWDPWTCSHMVQGLE (not fully specified; cysteine pairing not given here) [Con4-9 (C)], the IC50 was 20.1 nM.

For M[Fc(7)]GGGGGAQTWPQDKCEWDPWTCEHMGSTLE (not fully specified (bridges); cysteine pairing not given here) [Con4-27 (C)], the concentration for half-maximal inhibition (IC50) is 0.22 nM.

Consider M[Fc(7)]GGGGGAQQWSWPPCEWDPWTCQTVWPSLE (not fully specified (bridges); cysteine pairing not given here) [Con4-15 (C)], for which the IC50 amounted to 15 nM.

M[Fc(7)]GGGGGAQDKILEECEWDPWTCRLLQGWLE (not fully specified (bridges); cysteine pairing not given here) [AC3-Con4 (C)]: the IC50 was above 1000 nM.

With M[Fc(7)]GGGGGAQVLGGQGCQWDPWTCSHLEDGLE (not fully specified (bridges); cysteine pairing not given here) [Con4-1 (C)], the half-inhibitory concentration (IC50) was 2.47 nM. This counts as single-digit nanomolar.

With M[Fc(7)]GGGGGAQQVIGRPCEWDPWTCEHLEGLLE (not fully specified (bridges); cysteine pairing not given here) [Con4-20 (C)], the IC50 was 0.48 nM. This IC50 is about 5.1-fold lower than that of the molecule before.

M[Fc]GGGGGAQKSTQDDCDWDPWTCEHMVGPLE (not fully specified; cysteine pairing not given here) [Con4-32 (C)] yielded an IC50 of 0.75 nM.

In turn, M[Fc(4)]GGGGGAQLWQLAVCQWDPQTCDHMGALLE (not fully specified; cysteine pairing not given here) [Con4-7 (C)] came in with an IC50 above 1000 nM.

As for M[Fc(7)]GGGGGAQDKILEECQWDPWTCQFFYGALE (not fully specified (bridges); cysteine pairing not given here) [Con4-3 (C)], the IC50 is 282 nM.

M[Fc(7)]GGGGGAQTWPQDKCEWDPWTCRLLQGWLE (not fully specified (bridges); cysteine pairing not given here) [AC1-Con4 (C)] registered an IC50 above 1000 nM.

Molecule M[Fc(7)]GGGGGAQAATQEECEWDPWTCRLLQGWLE (not fully specified (bridges); cysteine pairing not given here) [AC5-Con4 (C)] yielded an IC50 above 1000 nM.

Consider M[Fc]GGGGGAQWYEQDACEWDPWTCEHMAEVLE (not fully specified; cysteine pairing not given here) [Con4-4 (C)], for which the IC50 was found to be 0.12 nM.

For the molecule M[Fc(7)]GGGGGAQTQLVSLCEWDPWTCRLLDGWLE (not fully specified (bridges); cysteine pairing not given here) [Con4-12 (C)], the IC50 is above 1000 nM.

In turn, M[Fc(7)]GGGGGAQQGMKMFCEWDPWTCAHIVYRLE (not fully specified (bridges); cysteine pairing not given here) [Con4-11 (C)] showed an IC50 of 9.7 nM.

For the molecule M[Fc]GGGGGAQPRLQEECVWDPWTCEHMPLRLE (not fully specified; cysteine pairing not given here) [Con4-38 (C)], the IC50 stood at 0.4 nM.

On to M[Fc(4)]GGGGGAQATFARQCQWDPWTCALGGNWLE (not fully specified; cysteine pairing not given here) [Con4-5 (C)], for which the 50% inhibitory concentration (IC50) was above 1000 nM.

M[Fc(4)]GGGGGAQWAAQEECEWDPWTCEHMGRMLE (not fully specified; cysteine pairing not given here) [Con4-49 (C)] returned an IC50 of 0.19 nM.

The molecule M[Fc(4)]GGGGGAQTTIGSMCQWDPWTCEHMQGGLE (not fully specified (bridges); cysteine pairing not given here) [Con4-C4 (C)] came in with an IC50 of 9.8 nM.

In the case of M[Fc(4)]GGGGGAQAATQEECEWDPWTCEHMPRSLE (not fully specified (bridges); cysteine pairing not given here) [Con4-C5 (C)], the IC50 was 0.16 nM.

On to M[Fc]GGGGGAQKSGQVECNWDPWTCEHMPRNLE (not fully specified; cysteine pairing not given here) [Con4-36 (C)], for which the IC50 amounted to 0.28 nM.

In turn, M[Fc(4)]GGGGGAQTTIGSMCQWDPWTCAHMQGGLE (not fully specified (bridges); cysteine pairing not given here) [Con4-C2 (C)] gave an IC50 of 3.75 nM.

With M[Fc(4)]GGGGGAQNVRQEKCEWDPWTCEHMPVRLE (not fully specified; cysteine pairing not given here) [Con4-41 (C)], the IC50 is 0.26 nM.

On to M[Fc(7)]GGGGGAQAWGQEGCDWDPWTCEHMLPMLE (not fully specified (bridges); cysteine pairing not given here) [Con4-28 (C)], for which the IC50 was determined as 0.3 nM.

As to M[Fc]GGGGGAQVKTQEHCDWDPWTCEHMREWLE (not fully specified; cysteine pairing not given here) [Con4-34 (C)], the IC50 was found to be 0.28 nM.

Turning to M[Fc(7)]GGGGGAQVVQVGMCQWDPWTCKHMRLQLE (not fully specified (bridges); cysteine pairing not given here) [Con4-19 (C)], the IC50 was determined as 5.76 nM.

For M[Fc]GGGGGAQVPRQKDCEWDPWTCEHMYVGLE (not fully specified; cysteine pairing not given here) [Con4-35 (C)], the 50% inhibitory concentration (IC50) is 0.18 nM.

The molecule M[Fc(7)]GGGGGAQWVNEVVCEWDPWTCNHWDTPLE (not fully specified (bridges); cysteine pairing not given here) [Con4-18 (C)] returned an IC50 of 4.8 nM.

For M[Fc(7)]GGGGGAQVWRSQVCQWDPWTCNLGGDWLE (not fully specified (bridges); cysteine pairing not given here) [Con4-22 (C)], the IC50 came to 150 nM.

M[Fc(7)]GGGGGAQPDTRQGCQWDPWTCRLYGMWLE (not fully specified (bridges); cysteine pairing not given here) [Con4-24 (C)] displayed an IC50 above 1000 nM.

The molecule M[Fc(4)]GGGGGAQHGQNMECEWDPWTCEHMFRYLE (not fully specified; cysteine pairing not given here) [Con4-50 (C)] came in with an IC50 of 0.38 nM.
